Changes are numbered by the printed parent chain.
B1: Mab 2F11 (antibody, V domains shown)
VH: QVQLKESGPGLVAPSQSLSITCTVSGFSLTTYDISWIRQSPGKGLEWLGVIWTDGGTNYNSPFMSRLSIRKDNSKSQVFLKMNRLQTDDTAIYYCVRDQRLYFDVWGAGTTVTVSS
VL: NIVMTQSPKSMSMSVGERVTLNCKASEDVNTYVSWYQQQPEQSPKLLIYGASNRYTGVPDRFTGGGSTTDFTLTISSVQAEDLADYFCGQSFSYPTFGTGTKLEIK
B2: Mab 1G10 (antibody, V domains shown)
VH: B1 VH with Q1R, T31S, T53S, D54G, S68R, R70S, N73D, K75R, M82V, Q99L
VL: KIVMTQSPKSMSVSVGERVSLSCKASEDVGTYVSWYQQKPEQSPKLLIYGSSNRYTGVPDRFTGSGSATDFTLTISSVQAEDLADYSCGQSFTYPTFGTGTKLEIK
B3: Mab 2E10 (antibody, V domains shown)
VH: QVQLKESGPGLVAPSKSLSITCTVSGSSLDSFDISWIRQSPGKGLEWLGVIWTGGGTNYNSGFMSRLRITKDNSKSQVLLKMNSLQSDDTAIYYCVRDPRLYFDVWGAGTTVTVSS
VL: B1 VL with N22S, N30V, Q39K, E41D, G65S, T68A, F87Y, S91T
B4: Mab 2H7 (antibody, V domains shown)
VH: B3 VH with S40P, T70S, L79F, N83S
VL: B1 VL with N22S, N30V, Q39K, G65S, T68A, V78I, F87Y, S91T

Target: human wildtype CSF-1R (full-length) (human, UniProt P07333 20-972)
Assay: cell-based or functional assay

Going from B1 to B2, the “% inhibition 10 µg/ml antibody concentration (BeWo cells, CSF-1 induced growth)” value rises from 70% to 99%.

Compared with B3, B4 is higher in “% inhibition 10 µg/ml antibody concentration (BeWo cells, CSF-1 induced growth)” value: 102% for the first, 103% for the second.

Target: CSF-1R of cynomolgous monocytes (cynomolgous)
Assay: cell-based or functional assay

First: B1
Second: B2
The “% survival (cynomolgous monocytes with huCSF-1, 5 µg/ml antibody)” value of the first is higher: 4% for the first, 2% for the second.

First: B3
Second: B4
The “% survival (cynomolgous monocytes with huCSF-1, 5 µg/ml antibody)” value of the first is higher: 17% for the first, 8% for the second.
